The record followed here is US11473073B2, “Aminopeptidases for protein hydrolyzates” (DUPONT NUTRITION BIOSCIENCES APS, priority 2015, dated 2022).

Common to all, as to format: biochemical
In assay [1] the test system is whey protein isolate (WPI). The assay is described as follows: Degree of hydrolysis of WPI with endopeptidases plus PepN. To be noted: for Degree of hydrolysis: 50° C., 18 hr. The protocol: Enzyme activities of PepN 1 Lactobacillus helveticus ATCC® 12046, PepN 1 Aspergillus oryzae and from PepN 2 from Aspergillus clavatus (TRI035) were determined according to Stressler, Eisele et al. (2013, infra). PepN 1 from L. helveticus was expressed and purified as described by Stressler, Eisele et al. (2013, infra).
The PepN 1 and 2 aminopeptidases were standardized to the activity range of 2.5-200 nkat*mL^−1. For protein hydrolyses, 1% (w/wWPI) FOODPRO® Alkaline Protease (DuPont, Brabrand, Denmark) and 1% (w/wWPI) FOODPRO® PNL (DuPont, Brabrand, Denmark) were added to the whey protein isolate suspension (WPI; LACPRODAN® 9224, Arla Ingredients, Viby, Denmark) with an initial pH of 7.0. Following the endopeptidases addition, the WPI was mixed and 200 μL were transferred to each well of a 96-well microtiter plate. The hydrolysis was conducted at 50° C. without pH control and terminated after 18 hr by addition of 20 μL of 2 M TCA. Prior to the determination of the DH (Nielsen, Petersen et al., 2001, infra), all samples were filtered 0.22 μm.

A further assay deals with soy. The assay is described as follows: Degree of hydrolysis in soy hydrolyses with and without 185 mM NaCl. The arrangement: Degree of hydrolysis: unit not given here. As to conditions: for Degree of hydrolysis: SOY, 50° C., 18 hr. The method, then:
(§1) Sodium chloride is frequently applied in the food industry to reduce the microbial contamination risk in protein hydrolyses. Pre-hydrolysed 10% (w/w) soy (SUPRO® 760, DuPont, Brabrand, Denmark) and gluten (Sigma-Aldrich, Schnelldorf, Germany) was prepared by addition of 1% (w/wprotein) FOODPRO® Alkaline Protease (DuPont, Brabrand, Denmark) and 1% (w/wprotein) FOODPRO® PNL (DuPont, Brabrand, Denmark). The hydrolyses were performed at 50° C. at pH 7.0 (without pH control) for 18 hr (heat inactivation after 18 hr; 90° C.; 10 min). Subsequently, the hydrolyses were divided in sodium chloride containing (185 mM) and non-salt containing hydrolyses. 150 μL of each pre-hydrolysed protein suspension was combined with differently standardized Aspergillus clavatus PepN 2 as indicated in Table 3. The hydrolyses were conducted at 50° C. without pH control and terminated after 18 hr by addition of 20 μL of 2 M TCA. Prior to the determination of the DH (Nielsen, Petersen et al. 2001, infra), all samples were filtered 0.22 μm.

The subject of assay [2] is gluten. Nature of the assay: Degree of hydrolysis in gluten hydrolyses with and without 185 mM NaCl. More on the design: Degree of hydrolysis: unit not given here. To be noted: for Degree of hydrolysis: Gluten, 50° C., 18 hr. The method, then: as §1
The subject of assay [3] is gluten. The assay is described as follows: Glutamic acid liberation in gluten hydrolyses (pH and temperature optimum). The method, then:
The liberation of glutamic acid is an important quality parameter in vegetable protein hydrolyses such as soy or gluten hydrolyses. The liberated glutamic acid can be perceived as the so-called “umami-flavor”. In order to determine the effect of the initially applied pH in gluten hydrolyses in terms of glutamic acid and glutamine liberation, the initial pH of a gluten hydrolyses was adjusted just after the liquefaction of the gluten after 15-30 min with 1 M HCl. Gluten was treated with Glutaminase (Amano, Japan). In addition, gluten was treated with FoodPro Alkaline Protease, FoodPro PNL as well as PepN 2 (Neosartorya fischeri). After 20 hr, the hydrolysis was terminated employing ultrafiltration (10 kDa cut-off, Sartorius Stedium Biotech, Göttingen, Germany). The permeate was applied for the enzymatic glutamic acid analyses (enzymatic L-glutamic acid analysis kit, Roche, Mannheim, Germany).
In order to determine the effect of the applied temperature during the gluten hydrolyses in terms of glutamic acid and glutamine liberation, the initial pH was adjusted with 1 M HCl to pH 7.0 just after the liquefaction of the gluten suspension after 15-30 min. Gluten was combined with Glutaminase (Amano, Japan). In addition, gluten was combined FOODPRO® Alkaline Protease, FOODPRO® PNL as well as PepN 2 (Neosartorya fischeri). […]

The mark [4] stands for this setting: 185 mM NaCl, protein concentration 0.2 mg/mL.
Setting [5] is: 185 mM NaCl, protein concentration 0.3 mg/mL.
Where [6] appears, read: 185 mM NaCl, protein concentration 0.4 mg/mL.
Where [7] appears, read: 185 mM NaCl, protein concentration 0.5 mg/mL.
Where [8] appears, read: reference (no salt), protein concentration 0.2 mg/mL.
The mark [9] stands for this setting: reference (no salt), protein concentration 0.3 mg/mL.
[10] abbreviates: reference (no salt), protein concentration 0.4 mg/mL.
The mark [11] stands for this setting: reference (no salt), protein concentration 0.5 mg/mL.

B1: TRI035: fungal aminopeptidase type-2 (pepN_2), NCBI XP_001273779 from Aspergillus clavatus NRRL 1 (protein)
chain: MQTFGAFLVSFLAASGLAAANAPGGPGGHGRKLPVNPKTFPNEIRLKDLLHGSQKLEDFAYAYPERNRVFGGQAHLDTVNYLYRELKKTGYYDVYKQPQVHQWTRADQSLTLGGDSIQASTMTYSPSVNVTAPLSLVSKLGCAEGDYSADVKGKIALVSRGECSFAQKSVLSAKAGAVATIVYNNVDGSLAGTLGGATSELGPYSPIIGITLAAGQDLVARLQAAPTEVSLWIDSKVENRTTYNVIAQTKGGDPNNVVALGGHTDSVENGPGINDDGSGVISNLVVAKALTRYSVKNAVRFCFWTAEEFGLLGSNYYVDNLSPAELAKIRLYLNFDMIASPNYALMIYDGDGSAFNLTGPPGSAQIESLFENYYKSIKQGFVPTAFDGRSDYEGFILKGIPAGGVFTGAESLKTEEQARLFGGQAGVALDANYHAKGDNMTNLNHKAFLINSRATAFAVATYANNLSSIPPRNATVVKRESMKWTKREEPHTHGADTGCFASRVKE
modifications: Synthetic peptide with leader sequence
For the molecule B1, the Degree of hydrolysis in assay [1] (PepN dosage 2.5 nkat/mL in stock solution) is listed as 15%; in assay [1] (PepN dosage 5 nkat/mL in stock solution), 17%; in assay [1] (PepN dosage 10 nkat/mL in stock solution) it was 17%; in assay [1] (PepN dosage 25 nkat/mL in stock solution), 20%; in assay [1] (PepN dosage 50 nkat/mL in stock solution), 24%; in assay [1] (PepN dosage 75 nkat/mL in stock solution), 26%. Besides, the Degree of hydrolysis stood at 35% in assay [1] (PepN dosage 100 nkat/mL in stock solution); 36% in assay [1] (PepN dosage 200 nkat/mL in stock solution); 10 in the assay with soy (setting [4]); 11 with soy (setting [5]); 11 with soy (setting [6]); 12 in the assay on soy (setting [7]). Moreover, the Degree of hydrolysis is listed as 11 in the assay with soy (setting [8]); 12 in the assay on soy (setting [9]); 12 in the assay on soy (setting [10]); 12 in the assay with soy (setting [11]); 14 with gluten [2] (185 mM NaCl, protein concentration 0.1 mg/mL); 15 in the assay on gluten [2] (setting [4]). The Degree of hydrolysis with gluten [2] (185 mM NaCl, protein concentration 0.25 mg/mL) was 15; with gluten [2] (setting [5]), 16; in the assay on gluten [2] (setting [6]) it was 17; in the assay with gluten [2] (setting [7]), 18; in the assay on gluten [2] (reference (no salt), protein concentration 0.1 mg/mL), 14; in the assay with gluten [2] (setting [8]) it was 16. In addition, the Degree of hydrolysis came to 17 in the assay with gluten [2] (reference (no salt), protein concentration 0.25 mg/mL); 16 in the assay on gluten [2] (setting [9]); 17 in the assay with gluten [2] (setting [10]); 18 with gluten [2] (setting [11]). Further, in assay [1] (at the two highest dosages), the “higher DH than the PepN 1 aminopeptidases” value was “at least 25%”. For the same molecule, the “influence of 185 mM NaCl on the determined degree of hydrolysis” value in the assay with soy (soy hydrolyses) and with gluten [2] (gluten hydrolyses) was “no influence” throughout.

B2: TRI031: fungal aminopeptidase type-2 (pepN_2), NCBI XP_001258675 from Neosartorya fischeri NRRL 181, expressed in Trichoderma reesei (protein)
chain: MQTFGAFLVSFLAASGLAAANGPGWDWKPPVHPKVLPQMIHLWDLMHGAQKLEDFAYAYPERNRVFGGPAHEDTVNYLYRELKKTGYYDVYKQPQVHQWTRADQALTVDGKSYVATTMTYSPSVNVTAPLAVVNNLGCVESDYPADLKGKIALVSRGECPFATKSVLSAKAGAAAALVYNNIEGSMAGTLGGPTSELGPYAPIAGISLADGQALIQMIQAGTVTANLWIDSKVENRTTYNVIAQTKGGDPNNVVALGGHTDSVEAGPGINDDGSGIISNLVVAKALTRFSVKNAVRFCFWTAEEFGLLGSSYYVNSLNATEKAKIRLYLNFDMIASPNYALMIYDGDGSAFNLTGPAGSAQIERLFEDYYKSIRKPFVPTEFNGRSDYEAFILNGIPAGGIFTGAEAIKTEEQAKLFGGQAGVALDANYHAKGDNMTNLNREAFLINSKATAFAVATYANSLDSIPSRNMSTVVKRSQLEQAKKSTPHTHTGGTGCYKDRVEQ
modifications: Synthetic peptide with leader sequence
notes: fungal aminopeptidase type-2 (pepN_2), NCBI XP_001258675 from Neosartorya fischeri NRRL 181, expressed in Trichoderma reesei
In the case of B2, in the assay on gluten [3] (gluten hydrolysis 20 h, initial pH 7.0, range 40-60° C., FIG. 3), the “temperature at which PepN 2 performed most efficient (glutamic acid liberation)” value came out at 60 °C. For the same molecule, the “pH range in which PepN 2 performed more efficient (glutamic acid liberation)” value in the assay with gluten [3] (gluten hydrolysis 20 hr with Glutaminase, FoodPro Alkaline Protease, FoodPro PNL, compared to pH 6.0, FIG. 2) is recorded as 7.0-9.0.
